How the values were obtained:
Assay in all cases: Western blot of SDS-PAGE-separated K18 GST fusion proteins, stained with COU-1 alone
[1] = target: T1, K18(1-312) GST fusion protein (human, UniProt P05783 2-313)
T1 construct: Alone, not complexed; not shown: glutathione S-transferase (GST) fusion partner, modified pGEX-2T vector
T1 sequence: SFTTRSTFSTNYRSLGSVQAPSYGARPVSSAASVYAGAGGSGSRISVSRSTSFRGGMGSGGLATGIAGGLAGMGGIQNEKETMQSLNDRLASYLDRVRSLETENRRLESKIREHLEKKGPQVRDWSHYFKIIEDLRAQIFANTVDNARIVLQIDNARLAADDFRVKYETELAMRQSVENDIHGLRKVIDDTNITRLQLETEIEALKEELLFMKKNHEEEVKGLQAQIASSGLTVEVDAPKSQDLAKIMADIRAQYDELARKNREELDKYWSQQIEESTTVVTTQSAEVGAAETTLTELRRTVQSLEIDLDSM

[2] = target: T2, K18(1-213) GST fusion protein (human, UniProt P05783 2-214)
T2 construct: Alone, not complexed; not shown: glutathione S-transferase (GST) fusion partner, modified pGEX-2T vector
T2 sequence: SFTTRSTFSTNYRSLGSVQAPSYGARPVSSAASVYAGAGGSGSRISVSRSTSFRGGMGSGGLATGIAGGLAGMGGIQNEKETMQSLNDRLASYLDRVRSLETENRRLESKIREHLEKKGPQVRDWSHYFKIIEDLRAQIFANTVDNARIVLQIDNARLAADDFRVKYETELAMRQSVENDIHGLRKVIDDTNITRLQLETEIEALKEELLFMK

[3] = target: T3, K18(1-187) GST fusion protein (human, UniProt P05783 2-188)
T3 construct: Alone, not complexed; not shown: glutathione S-transferase (GST) fusion partner, modified pGEX-2T vector
T3 sequence: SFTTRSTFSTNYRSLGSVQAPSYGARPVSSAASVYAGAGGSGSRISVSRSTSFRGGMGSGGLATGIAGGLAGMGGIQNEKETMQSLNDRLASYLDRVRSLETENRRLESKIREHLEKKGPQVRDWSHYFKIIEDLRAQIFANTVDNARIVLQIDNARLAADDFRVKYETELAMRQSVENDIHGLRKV

[4] = target: T4, recombinant intact K18 (GST fusion protein) (human, UniProt P05783 2-430)
T4 construct: Alone, not complexed with K8; also called full length K18; cytokeratin 18; not shown: glutathione S-transferase (GST) fusion partner, modified pGEX-2T vector
T4 sequence: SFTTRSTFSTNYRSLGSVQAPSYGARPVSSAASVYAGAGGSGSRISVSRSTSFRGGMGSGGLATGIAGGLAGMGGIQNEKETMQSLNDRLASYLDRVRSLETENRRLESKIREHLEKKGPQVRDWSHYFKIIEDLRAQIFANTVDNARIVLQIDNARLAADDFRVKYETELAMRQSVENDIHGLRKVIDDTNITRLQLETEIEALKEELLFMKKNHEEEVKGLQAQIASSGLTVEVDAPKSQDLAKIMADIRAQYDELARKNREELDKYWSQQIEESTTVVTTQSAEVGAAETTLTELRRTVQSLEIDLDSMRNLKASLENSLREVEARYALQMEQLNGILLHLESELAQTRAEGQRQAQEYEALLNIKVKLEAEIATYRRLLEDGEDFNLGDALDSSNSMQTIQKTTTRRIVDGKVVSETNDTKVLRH

[5] = target: T5, K18(1-356) GST fusion protein (human, UniProt P05783 2-357)
T5 construct: Alone, not complexed; not shown: glutathione S-transferase (GST) fusion partner, modified pGEX-2T vector
T5 sequence: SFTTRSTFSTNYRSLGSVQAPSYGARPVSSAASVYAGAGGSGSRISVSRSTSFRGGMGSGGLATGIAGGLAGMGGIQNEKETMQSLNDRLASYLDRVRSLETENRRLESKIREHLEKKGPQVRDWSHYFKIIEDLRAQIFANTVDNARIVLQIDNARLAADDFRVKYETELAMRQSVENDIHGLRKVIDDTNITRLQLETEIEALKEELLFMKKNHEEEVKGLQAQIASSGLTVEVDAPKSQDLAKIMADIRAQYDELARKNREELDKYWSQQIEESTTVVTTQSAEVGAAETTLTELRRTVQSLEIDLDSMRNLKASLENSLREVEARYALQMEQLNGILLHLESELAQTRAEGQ

[6] = target: T6, K18(1-385) GST fusion protein (human, UniProt P05783 2-386)
T6 construct: Alone, not complexed; not shown: glutathione S-transferase (GST) fusion partner, modified pGEX-2T vector
T6 sequence: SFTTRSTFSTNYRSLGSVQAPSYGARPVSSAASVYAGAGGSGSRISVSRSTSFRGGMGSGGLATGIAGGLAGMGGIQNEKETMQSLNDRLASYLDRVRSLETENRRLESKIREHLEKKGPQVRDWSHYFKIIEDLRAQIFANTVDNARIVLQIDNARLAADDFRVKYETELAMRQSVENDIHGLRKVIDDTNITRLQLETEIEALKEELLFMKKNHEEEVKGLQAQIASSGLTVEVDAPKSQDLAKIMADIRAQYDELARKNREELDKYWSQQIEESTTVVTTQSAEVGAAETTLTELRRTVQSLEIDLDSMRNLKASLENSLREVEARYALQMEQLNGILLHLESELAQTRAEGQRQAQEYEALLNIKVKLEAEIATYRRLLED

[7] = target: T7, K18(1-124) GST fusion protein (human, UniProt P05783 2-125)
T7 construct: Alone, not complexed; not shown: glutathione S-transferase (GST) fusion partner, modified pGEX-2T vector

B1: human monoclonal IgM antibody COU-1 (antibody, V domains shown)
VH: GAEVKKPGASVKVSCKASDYTFSSYYMHWVRQAPGQGLEWMGIINPSGGSTSYAQKFQGRVTMTRDTSTNTVYMELSSLRSEDTAVYYCARDQVVVAATLSNYGMDVWGQGTTVTVSS
VL: ELTQSPGTLSLSPGERATLSCRASQSVSSSYLAWYQQKPGQAPRLLIYDASNRATGIPARFSGSGSGTDFTLTISSLEPEDFAVYYCQQGTNWGIAFGQGTRLDIKR
notes: Human IgM with kappa light chain, secreted by hybridoma B9165 (ECACC 87040201), purified from culture supernatant; also called HMab COU-1; HuMab COU-1
B1: no binding (tested: 5 µg/ml COU-1 (P-0279)) [1]; no binding (tested: 5 µg/ml COU-1 (P-0279)) [2]; no binding (tested: 5 µg/ml COU-1 (P-0279)) [3]. B1: no binding (tested: 5 µg/ml COU-1 (P-0279)) [4]; no binding (tested: 5 µg/ml COU-1 (P-0279)) [5]; no binding (tested: 5 µg/ml COU-1 (P-0279)) [6]. B1: no binding (tested: 5 µg/ml COU-1 (P-0279)) [7].

Reference: patent US20050048070A1 (published 2005)
